Reference: publication PMC4220974, “Effect of the L499M mutation of the ascomycetous Botrytis aclada laccase on redox potential and catalytic properties” (Acta Crystallographica Section D: Biological Crystallography, 2014)

Assays:
Test in all cases: purified protein
Assay type in all cases: biochemical, Botrytis aclada
COc1cccc(OC)c1O = settings: pH 4.0, 100 mM citrate-phosphate, 30 °C, air-saturated, µ and ± signs lost in the table text (header reads M), apparent Km, also measured at pH 3, 5, 6
[1] = system: CCn1c(=NN=c2sc3cc(S(=O)(=O)O)ccc3n2CC)sc2cc(S(=O)(=O)O)ccc21; settings: pH 4.0, 100 mM citrate-phosphate, 30 °C, air-saturated, µ and ± signs lost in the table text (header reads M), apparent Km, also measured at pH 3, 5, 6
purified protein [2] = substrate: COc1cccc(OC)c1O; settings: pH 4.0, 100 mM citrate-phosphate, 30 °C, air-saturated, apparent Km, also measured at pH 3, 5, 6
purified protein [3] = substrate: CCn1c(=NN=c2sc3cc(S(=O)(=O)O)ccc3n2CC)sc2cc(S(=O)(=O)O)ccc21; settings: pH 4.0, 100 mM citrate-phosphate, 30 °C, air-saturated, µ and ± signs lost in the table text (header reads M), apparent Km, also measured at pH 3, 5, 6; remark: listed apart in the source

BaL (Botrytis aclada laccase) (Botrytis aclada; L536M)
Km (COc1cccc(OC)c1O): 80.8 ± 2.7 µM | Km [1]: 19.3 ± 1.0 µM

B1: BaL (Botrytis aclada laccase) (Botrytis aclada) (protein)
chain: SCANSATSRSCWGEYSIDTNWYDVTPTGVTREYWLSVENSTITPDGYTRSAMTFNGTVPGPAIIADWGDNLIIHVTNNLEHNGTSIHWHGIRQLGSLEYDGVPGVTQCPIAPGDTLTYKFQVTQYGTTWYHSHFSLQYGDGLFGPLIINGPATADYDEDVGVIFLQDWAHESVFEIWDTARLGAPPALENTLMNGTNTFDCSASTDPNCVGGGKKFELTFVEGTKYRLRLINVGIDSHFEFAIDNHTLTVIANDLVPIVPYTTDTLLIGIGQRYDVIVEANAAADNYWIRGNWGTTCSTNNEAANATGILRYDSSSIANPTSVGTTPRGTCEDEPVASLVPHLALDVGGYSLVDEQVSSAFTNYFTWTINSSSLLLDWSSPTTLKIFNNETIFPTEYNVVALEQTNANEEWVVYVIEDLTGFGIWHPIHLHGHDFFIVAQETDVFNSDESPAKFNLVNPPRRDVAALPGNGYLAIAFKLDNPGSWLLHCHIAWHASEGLAMQFVESQSSIAVKMTDTAIFEDTCANWNAYTPTQLFAEDDSGI
notes: full-length cDNA expressed in secreted form in Pichia pastoris X33; 543 residues; kinetics on glycosylated enzyme
Km (purified protein [2]): 8.3 ± 0.7 µM | Km (purified protein [3]): 14.0 ± 1.0 µM
